Reference: patent US20190112375A1 (Bristol-Myers Squibb, published 2019)
Numbering of substitutions follows the chain as printed. Numbers in names are those of the source.

T1: human TIGIT (soluble, SPR; construct not stated) (human, UniProt Q495A1 22-141, limits assumed)
T1 construct: whole entry named; also called huTIGIT
T1 sequence: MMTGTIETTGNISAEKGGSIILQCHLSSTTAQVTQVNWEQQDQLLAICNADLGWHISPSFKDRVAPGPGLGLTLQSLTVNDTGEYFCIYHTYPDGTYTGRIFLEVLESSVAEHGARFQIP

T2: recombinant human TIGIT (rhTIGIT/Fc) (human, UniProt Q495A1 22-141)
T2 construct: also called TIGIT antigen (rhTIGIT/Fc); not shown: Fc part
T2 sequence: T1 sequence

T3: human TIGIT on cells (human, UniProt Q495A1 22-244)
T3 construct: also called huTIGIT on Jurkat cells; Jurkat/hTIGIT
T3 sequence: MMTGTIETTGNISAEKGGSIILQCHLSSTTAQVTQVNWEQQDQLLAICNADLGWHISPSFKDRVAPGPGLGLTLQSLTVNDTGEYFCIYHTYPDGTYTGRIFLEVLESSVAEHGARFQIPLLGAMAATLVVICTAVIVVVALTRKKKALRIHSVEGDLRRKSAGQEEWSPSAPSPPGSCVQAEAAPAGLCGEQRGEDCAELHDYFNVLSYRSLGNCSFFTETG

T4: hCD32a-H131 (FcγRIIA-H131) (human, UniProt P12318 36-218, limits assumed)
T4 sequence (looked up): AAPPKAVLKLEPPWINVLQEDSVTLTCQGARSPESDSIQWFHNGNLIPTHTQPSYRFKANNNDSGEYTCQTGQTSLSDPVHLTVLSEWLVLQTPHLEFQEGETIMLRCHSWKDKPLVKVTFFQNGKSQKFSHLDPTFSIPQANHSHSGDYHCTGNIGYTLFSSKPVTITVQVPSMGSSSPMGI

T5: huTIGIT-muFc fusion protein (human; mouse, UniProt Q495A1 22-141)
T5 construct: also called TIGIT-mFc; not shown: mouse IgG2a Fc, at the C-terminus of the TIGIT part
T5 sequence: T1 sequence

B1: 15A6 IgG1.1f (antibody)
heavy: QLQLQESGPGLVKPSETLSLTCTVSGGSISSSRYFWGWIRQPPGKGLEWIGYIYYRGSTYYNPSLKSRVTIAVDTSKNQFSLKLSSVTAADTAVYYCASSSAWYFDYWGQGNLVTVSSASTKGPSVFPLAPSSKSTSGGTAALGCLVKDYFPEPVTVSWNSGALTSGVHTFPAVLQSSGLYSLSSVVTVPSSSLGTQTYICNVNHKPSNTKVDKRVEPKSCDKTHTCPPCPAPEAEGAPSVFLFPPKPKDTLMISRTPEVTCVVVDVSHEDPEVKFNWYVDGVEVHNAKTKPREEQYNSTYRVVSVLTVLHQDWLNGKEYKCKVSNKALPSSIEKTISKAKGQPREPQVYTLPPSREEMTKNQVSLTCLVKGFYPSDIAVEWESNGQPENNYKTTPPVLDSDGSFFLYSKLTVDKSRWQQGNVFSCSVMHEALHNHYTQKSLSLSPG
VL: not shown
notes: kappa light chain
B2: 15A6 A72S IgG1.1f (antibody)
heavy: B1 heavy with A72S
VL: not shown
notes: kappa light chain; also called 15A6 VH domain A72S
B3: 15A6 N112T IgG1.1f (antibody)
heavy: B1 heavy with N112T
VL: not shown
notes: kappa light chain; also called 15A6 VH domain N112T
B4: 15A6 A72S & N112T IgG1.1f (antibody)
heavy: B1 heavy with A72S, N112T
VL: not shown
notes: kappa light chain; also called 15A6 VH domain A72S N112T
B5: 11G11 (antibody, V domains shown)
VH: QLQLQESGPGLVKPSETLSLTCTVSGGSISSSSHYWGWIRQPPGKGLEWIGNIFYSGHTYYNPSLKSRVTISVDTSKNQFSLKLSSVTAADTAVYYCARQGLLWFGGLSPYYFDYWGQGTLVTVSS
VL: EIVLTQSPATLSLSPGERATLSCRASQSVSSYLAWYQQKPGQAPRLLIYDASNRATGIPARFSGSGSGTDFTLTISSLEPEDFAVYYCQQRSNWPTFGQGTKLEIK
notes: fully human mAb from KM mouse hybridoma; also called anti-huTIGIT mAb 11G11
B6: 22G2 IgG1.1f (antibody)
heavy: QVHLQESGPGLVKPSETLSLTCTVSGGSVSSGIYYWSWIRQPPGKGLEWIGYIYYSGSTNYNPSLKSRVTISVDTSKNQFSLKLSSVTAADTAVYYCARDYYVSGNYYNVDYYFFGVDVWGQGTTVTVSSASTKGPSVFPLAPSSKSTSGGTAALGCLVKDYFPEPVTVSWNSGALTSGVHTFPAVLQSSGLYSLSSVVTVPSSSLGTQTYICNVNHKPSNTKVDKRVEPKSCDKTHTCPPCPAPEAEGAPSVFLFPPKPKDTLMISRTPEVTCVVVDVSHEDPEVKFNWYVDGVEVHNAKTKPREEQYNSTYRVVSVLTVLHQDWLNGKEYKCKVSNKALPSSIEKTISKAKGQPREPQVYTLPPSREEMTKNQVSLTCLVKGFYPSDIAVEWESNGQPENNYKTTPPVLDSDGSFFLYSKLTVDKSRWQQGNVFSCSVMHEALHNHYTQKSLSLSPG
light: not shown
notes: effectorless IgG1.1f (L234A, L235E, G237A, A330S, P331S, EU numbering); also called anti-TIGIT mAb 22G2 IgG1.1f; antibody 22G2 IgG1.1f; copies: 2 + 2
B7: 22G2 H3Q IgG1.1f (antibody)
heavy: B6 heavy with H3Q
light: not shown
notes: kappa constant tied to the 22G2 light chain only by claim 4; also called 22G2 VH domain H3Q, isotype IgG1.1f
B8: 15A6 (antibody, V domains shown)
VH: QLQLQESGPGLVKPSETLSLTCTVSGGSISSSRYFWGWIRQPPGKGLEWIGYIYYRGSTYYNPSLKSRVTIAVDTSKNQFSLKLSSVTAADTAVYYCASSSAWYFDYWGQGNLVTVSS
VL: not shown
notes: fully human mAb from KM mouse hybridoma, kappa light chain; also called anti-huTIGIT mAb 15A6
B9: 10D7 (antibody, V domains shown)
VH: QGQLVQSGAEVKKPGSSVKVSCKASGGIFRNYAISWVRQAPGQGLEWMGGIIPFFGTANYAQKFQGRVTITADESTSTAYMELSSLRSEDTAVYYCARGGAAAGTTRYGYYYYGMDVWGQGTTVTVSS
VL: DIQMTQSPSSLSASVGDRVTITCRASQGISSWLAWYQQKPEKAPKSLIYAASSLQSGVPSRFSGSGSGTDFTLTISSLQPEDFATYYCQQYNSYPITFGQGTRLEIK
notes: fully human mAb from KM mouse hybridoma; also called anti-huTIGIT mAb 10D7
B10: 22G2 (antibody, V domains shown)
VH: QVHLQESGPGLVKPSETLSLTCTVSGGSVSSGIYYWSWIRQPPGKGLEWIGYIYYSGSTNYNPSLKSRVTISVDTSKNQFSLKLSSVTAADTAVYYCARDYYVSGNYYNVDYYFFGVDVWGQGTTVTVSS
VL: EIVLTQSPATLSLSPGERATLSCRASQSVSSYLAWYQQKPGQAPRLLIYDASNRATGIPARFSGSGSGTDFTLTISSLEPEDFAVYYCQQRSNWPPLFTFGPGTKVDIK
notes: fully human mAb from KM mouse hybridoma, kappa light chain; also called anti-huTIGIT mAb 22G2; antibody 22G2
B11: 22G2 H3Q IgG1 (antibody)
heavy: B10 VH with H3Q
light: not shown
notes: isotype printed as IgG1 (perhaps IgG1f); kappa constant tied to the 22G2 light chain only by claim 4; also called 22G2 VH domain H3Q, isotype IgG1; not shown: human IgG1 constant region

Tests used:
[1] = biological target: T1, human TIGIT (soluble, SPR; construct …); assay: SPR
[2] = biological target: T2, recombinant human TIGIT (rhTIGIT/Fc); assay: SPR, mAb captured on anti-kappa chip, rhTIGIT/Fc analyte
Protocol: Binding of anti-huTIGIT antibodies to soluble human TIGIT was determined by BIACORE® surface plasmon resonance (SPR) analysis. […] The capture concentration of the mAb/volume was 2-40 μg/mL (5 μL at 10 μL/min). The antigen association time was 5 minutes at 15 μL/min, the antigen dissociation time was 6 minutes, and regeneration was performed with 50 mM HCl/50 mM NaOH (12 μL each at 100 μL/min).

[3] = biological target: T3, human TIGIT on cells; assay: binding to human CD8+ T cells; human CD8+ T cells
[4] = biological target: T6, cynomolgus monkey TIGIT on cells (cynomolgus monkey, UniProt A0A7N9I9V4 89-312); assay: binding to monkey CD8+ T cells; monkey CD8+ T cells; lower end of the range
T6 construct: whole, on cells; also called TIGIT from cynomolgus monkeys expressed on CHO cells; cyno TIGIT on primary cells

[5] = biological target: T6, cynomolgus monkey TIGIT on cells; assay: binding to monkey CD8+ T cells; monkey CD8+ T cells; upper end of the range
[6] = biological target: T3, human TIGIT on cells; assay: method not stated; follows the sentence on TIGIT expressed on CHO cells; human TIGIT; KD, method not stated
[7] = biological target: T6, cynomolgus monkey TIGIT on cells; assay: method not stated; follows the sentence on TIGIT expressed on CHO cells; monkey TIGIT; KD, method not stated
[8] = biological target: T4, hCD32a-H131 (FcγRIIA-H131); assay: Fcγ receptor binding as % of theoretical maximum response (% Rmax), two lots, two concentrations (10 µM, 1 µM); no negative control shown
[9] = biological target: hCD16a-V158 (FcγRIIIA-V158) (human, UniProt P08637 17-208); assay: as above
[10] = biological target: hCD16b-NA2 (FcγRIIIB-NA2) (human, UniProt O75015 17-200, limits assumed); assay: as above
[11] = biological target: T5, huTIGIT-muFc fusion protein; assay: blockade of TIGIT-mFc (at its EC90, 14.1 nM) binding to P815 cells over-expressing human PVR; competitor: human PVR; P815 cells over-expressing human PVR; TIGIT-mFc at EC90 14.1 nM
[12] = biological target: T5, huTIGIT-muFc fusion protein; assay: blockade of TIGIT-mFc (at its EC90, 12.8 nM) binding to P815 cells over-expressing human Nectin-2; competitor: human Nectin-2; P815 cells over-expressing human Nectin-2; TIGIT-mFc at EC90 12.8 nM
[13] = biological target: T1, human TIGIT (soluble, SPR; construct …); assay: SPR, full titration curves, subcloned and purified antibody
[14] = biological target: T1, human TIGIT (soluble, SPR; construct …); assay: SPR; remark: listed apart in the source
[15] = biological target: T7, cynomolgus monkey TIGIT (cynomolgus monkey); assay: SPR
T7 construct: also called cyno TIGIT

[16] = biological target: T3, human TIGIT on cells; assay: cell-based or functional assay

Row | Binder | Kd [1] | koff [1] | kon [1] | Kd [2] | koff [2] | kon [2] | other results
1 | B1 | 1.5 nM | 0.0016 s⁻¹ | 1.1e+06 M⁻¹ s⁻¹ |  |  |  | 
2 | B2 | 1.5 nM | 0.0017 s⁻¹ | 1.1e+06 M⁻¹ s⁻¹ |  |  |  | 
3 | B3 | 1.7 nM | 0.0019 s⁻¹ | 1.1e+06 M⁻¹ s⁻¹ |  |  |  | 
4 | B4 | 2 nM | 0.002 s⁻¹ | 1e+06 M⁻¹ s⁻¹ |  |  |  | 
5 | B5 |  |  |  | 28.7 nM | 0.00144 s⁻¹ | 50300 M⁻¹ s⁻¹ | 
6 | B6 | 0.07 nM | 0.00013 s⁻¹ | 2e+06 M⁻¹ s⁻¹ |  |  |  | EC50 [3]: 0.55 nM; EC50 [4]: ≥ 0.28 nM; EC50 [5]: ≤ 0.58 nM; Kd [6]: 0.09 nM; Kd [7]: 0.07 nM; binding result [8]: no binding (tested: 10 µM); binding result [9]: no binding (tested: 10 µM); binding result [10]: no binding (tested: 10 µM); IC50 [11]: 15.4 nM; IC50 [12]: 5.72 nM
7 | B7 | 0.08 nM | 0.00016 s⁻¹ | 2e+06 M⁻¹ s⁻¹ |  |  |  | 
8 | B8 |  |  |  | 19.9 nM | 0.00404 s⁻¹ | 202000 M⁻¹ s⁻¹ | Kd [13]: 1.5 nM
9 | B9 |  |  |  | 38.1 nM | 0.00651 s⁻¹ | 171000 M⁻¹ s⁻¹ | 
10 | B10 |  |  |  | 0.17 nM | 0.000403 s⁻¹ | 2.37e+06 M⁻¹ s⁻¹ | Kd [14]: 0.06 nM; Kd [15]: 0.09 nM; Bioassay of Jurkat/hTIGIT cells, block of PVR signaling, IC50 [16]: 0.21 nM; Kd [13]: 0.09 nM
11 | B11 | 0.16 nM | 0.0003 s⁻¹ | 1.9e+06 M⁻¹ s⁻¹ |  |  |  | 
